# Experimental data reported in patent publication US20100229252, “MEGANUCLEASE VARIANTS CLEAVING A DNA TARGET SEQUENCE FROM THE HUMAN HEMOGLOBIN BETA GENE AND USES THEREOF” (CELLECTIS, published 2010).
# T1: I-CreI heterodimer HBB8.3_C3 / HBB8.4_D4 (Chlamydomonas reinhardtii, UniProt P05725;P05725 SEQ:1-167,SEQ:1-167)
# T1 chain 1: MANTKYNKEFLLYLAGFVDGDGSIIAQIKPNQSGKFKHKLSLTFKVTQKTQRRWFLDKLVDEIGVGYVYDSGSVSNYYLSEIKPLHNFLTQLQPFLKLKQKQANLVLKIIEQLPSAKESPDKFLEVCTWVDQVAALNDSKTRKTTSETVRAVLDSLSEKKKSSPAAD
# T1 chain 2: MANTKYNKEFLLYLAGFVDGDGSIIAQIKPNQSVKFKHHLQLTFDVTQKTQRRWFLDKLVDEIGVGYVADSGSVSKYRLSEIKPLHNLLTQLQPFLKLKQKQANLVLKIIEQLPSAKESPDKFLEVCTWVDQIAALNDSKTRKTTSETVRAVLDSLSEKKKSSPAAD
# T2: I-CreI heterodimer HBB8.3_K3 / HBB8.4_D4 (Chlamydomonas reinhardtii, UniProt P05725;P05725 SEQ:1-167,SEQ:1-167)
# T2 chain 1: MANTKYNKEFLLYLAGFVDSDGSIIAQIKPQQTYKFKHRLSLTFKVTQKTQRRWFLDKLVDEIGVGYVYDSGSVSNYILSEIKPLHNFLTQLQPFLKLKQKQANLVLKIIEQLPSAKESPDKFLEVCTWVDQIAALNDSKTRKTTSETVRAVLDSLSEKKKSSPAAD
# T2 chain 2: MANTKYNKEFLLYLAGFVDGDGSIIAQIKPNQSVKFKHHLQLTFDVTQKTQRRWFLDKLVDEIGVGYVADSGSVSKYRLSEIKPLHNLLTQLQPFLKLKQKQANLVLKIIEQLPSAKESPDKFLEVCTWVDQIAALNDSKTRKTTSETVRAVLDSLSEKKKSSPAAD
# T3: I-CreI heterodimer HBB8.3_I3 / HBB8.4_B4 (Chlamydomonas reinhardtii, UniProt P05725;P05725 SEQ:1-167,SEQ:1-167)
# T3 chain 1: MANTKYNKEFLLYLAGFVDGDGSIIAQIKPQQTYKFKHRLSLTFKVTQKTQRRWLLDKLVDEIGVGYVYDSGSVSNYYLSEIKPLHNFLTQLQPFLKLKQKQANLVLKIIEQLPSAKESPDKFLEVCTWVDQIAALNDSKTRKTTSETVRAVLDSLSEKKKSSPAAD
# T3 chain 2: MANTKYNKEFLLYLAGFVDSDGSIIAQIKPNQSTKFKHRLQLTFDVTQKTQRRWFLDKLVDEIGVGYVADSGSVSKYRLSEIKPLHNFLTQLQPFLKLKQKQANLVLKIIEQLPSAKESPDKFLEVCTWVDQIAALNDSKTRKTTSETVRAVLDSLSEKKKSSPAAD
# T4: I-CreI heterodimer HBB8.3_D3 / HBB8.4_A4 (Chlamydomonas reinhardtii, UniProt P05725;P05725 SEQ:1-167,SEQ:1-167)
# T4 chain 1: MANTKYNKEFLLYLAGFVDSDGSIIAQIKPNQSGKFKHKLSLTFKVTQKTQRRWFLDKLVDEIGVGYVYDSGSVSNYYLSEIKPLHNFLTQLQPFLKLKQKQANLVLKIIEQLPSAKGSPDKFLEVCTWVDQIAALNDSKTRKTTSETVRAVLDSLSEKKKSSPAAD
# T4 chain 2: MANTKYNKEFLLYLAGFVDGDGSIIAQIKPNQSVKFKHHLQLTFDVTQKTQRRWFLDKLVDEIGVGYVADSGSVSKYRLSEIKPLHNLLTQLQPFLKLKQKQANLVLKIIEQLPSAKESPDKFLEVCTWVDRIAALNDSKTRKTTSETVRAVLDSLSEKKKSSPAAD
# T5: I-CreI heterodimer HBB8.3_I3 / HBB8.4_D4 (Chlamydomonas reinhardtii, UniProt P05725;P05725 SEQ:1-167,SEQ:1-167)
# T5 chain 1: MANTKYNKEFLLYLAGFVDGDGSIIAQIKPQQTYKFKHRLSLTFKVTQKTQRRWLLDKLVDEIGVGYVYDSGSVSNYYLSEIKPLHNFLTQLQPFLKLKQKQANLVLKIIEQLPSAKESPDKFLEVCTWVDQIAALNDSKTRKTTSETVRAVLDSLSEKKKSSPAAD
# T5 chain 2: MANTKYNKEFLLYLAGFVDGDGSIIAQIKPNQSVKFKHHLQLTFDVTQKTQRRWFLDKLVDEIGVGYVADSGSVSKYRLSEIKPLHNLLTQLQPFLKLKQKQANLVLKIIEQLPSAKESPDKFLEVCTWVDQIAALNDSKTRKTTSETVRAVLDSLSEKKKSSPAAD
# T6: I-CreI heterodimer HBB8.3_E3 / HBB8.4_A4 (Chlamydomonas reinhardtii, UniProt P05725;P05725 SEQ:1-167,SEQ:1-167)
# T6 chain 1: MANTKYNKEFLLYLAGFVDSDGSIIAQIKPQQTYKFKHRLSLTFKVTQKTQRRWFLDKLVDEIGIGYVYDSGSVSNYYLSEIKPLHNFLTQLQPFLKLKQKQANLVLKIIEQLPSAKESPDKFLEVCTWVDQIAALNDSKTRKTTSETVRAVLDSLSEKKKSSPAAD
# T6 chain 2: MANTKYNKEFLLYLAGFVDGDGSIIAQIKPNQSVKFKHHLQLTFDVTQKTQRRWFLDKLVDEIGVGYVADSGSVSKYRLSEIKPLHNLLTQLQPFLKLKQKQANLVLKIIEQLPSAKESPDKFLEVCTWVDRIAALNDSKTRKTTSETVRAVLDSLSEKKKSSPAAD
# T7: I-CreI heterodimer HBB8.3_B3 / HBB8.4_B4 (Chlamydomonas reinhardtii, UniProt P05725;P05725 SEQ:1-167,SEQ:1-167)
# T7 chain 1: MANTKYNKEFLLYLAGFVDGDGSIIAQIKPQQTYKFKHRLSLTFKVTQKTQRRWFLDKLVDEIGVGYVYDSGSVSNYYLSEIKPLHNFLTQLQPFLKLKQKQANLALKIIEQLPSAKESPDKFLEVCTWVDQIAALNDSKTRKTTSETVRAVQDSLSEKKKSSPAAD
# T7 chain 2: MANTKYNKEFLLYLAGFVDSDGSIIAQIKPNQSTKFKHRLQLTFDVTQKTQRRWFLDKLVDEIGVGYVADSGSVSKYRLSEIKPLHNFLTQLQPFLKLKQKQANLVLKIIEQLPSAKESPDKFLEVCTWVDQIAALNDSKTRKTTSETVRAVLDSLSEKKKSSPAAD
# T8: I-CreI heterodimer HBB8.3_H3 / HBB8.4_D4 (Chlamydomonas reinhardtii, UniProt P05725;P05725 SEQ:1-167,SEQ:1-167)
# T8 chain 1: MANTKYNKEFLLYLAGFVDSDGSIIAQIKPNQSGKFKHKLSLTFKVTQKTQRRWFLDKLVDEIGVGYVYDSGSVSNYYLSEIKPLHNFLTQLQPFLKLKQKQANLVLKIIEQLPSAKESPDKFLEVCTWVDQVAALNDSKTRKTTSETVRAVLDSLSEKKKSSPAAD
# T8 chain 2: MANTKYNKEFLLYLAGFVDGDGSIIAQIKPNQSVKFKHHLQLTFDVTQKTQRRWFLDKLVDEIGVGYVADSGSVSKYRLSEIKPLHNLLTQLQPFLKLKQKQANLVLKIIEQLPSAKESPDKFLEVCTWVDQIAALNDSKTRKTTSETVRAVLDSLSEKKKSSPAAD
# T9: I-CreI heterodimer HBB8.3_C3 / HBB8.4_C4 (Chlamydomonas reinhardtii, UniProt P05725;P05725 SEQ:1-167,SEQ:1-167)
# T9 chain 1: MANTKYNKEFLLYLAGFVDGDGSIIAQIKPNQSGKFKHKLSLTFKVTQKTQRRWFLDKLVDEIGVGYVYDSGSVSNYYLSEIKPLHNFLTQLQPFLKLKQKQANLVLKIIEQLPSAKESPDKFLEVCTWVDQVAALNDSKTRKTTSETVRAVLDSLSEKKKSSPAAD
# T9 chain 2: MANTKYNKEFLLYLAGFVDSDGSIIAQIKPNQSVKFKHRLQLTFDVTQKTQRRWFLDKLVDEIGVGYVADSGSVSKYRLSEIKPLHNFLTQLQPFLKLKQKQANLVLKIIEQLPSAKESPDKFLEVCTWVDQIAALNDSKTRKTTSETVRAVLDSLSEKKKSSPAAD
# T10: I-CreI heterodimer HBB8.3_K3 / HBB8.4_B4 (Chlamydomonas reinhardtii, UniProt P05725;P05725 SEQ:1-167,SEQ:1-167)
# T10 chain 1: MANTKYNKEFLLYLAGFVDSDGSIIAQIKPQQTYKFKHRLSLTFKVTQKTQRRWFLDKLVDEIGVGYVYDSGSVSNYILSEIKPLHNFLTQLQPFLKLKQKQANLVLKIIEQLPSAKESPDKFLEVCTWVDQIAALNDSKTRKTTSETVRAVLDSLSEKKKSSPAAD
# T10 chain 2: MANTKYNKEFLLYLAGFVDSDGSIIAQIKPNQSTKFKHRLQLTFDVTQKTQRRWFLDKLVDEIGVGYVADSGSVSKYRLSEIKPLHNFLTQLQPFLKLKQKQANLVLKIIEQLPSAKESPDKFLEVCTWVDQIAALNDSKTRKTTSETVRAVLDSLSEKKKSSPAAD
# T11: I-CreI heterodimer HBB8.3_D3 / HBB8.4_D4 (Chlamydomonas reinhardtii, UniProt P05725;P05725 SEQ:1-167,SEQ:1-167)
# T11 chain 1: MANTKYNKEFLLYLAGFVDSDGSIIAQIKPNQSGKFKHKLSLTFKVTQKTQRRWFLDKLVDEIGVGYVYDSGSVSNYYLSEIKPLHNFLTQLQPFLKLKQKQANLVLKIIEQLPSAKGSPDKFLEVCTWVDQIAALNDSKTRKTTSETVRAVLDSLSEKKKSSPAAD
# T11 chain 2: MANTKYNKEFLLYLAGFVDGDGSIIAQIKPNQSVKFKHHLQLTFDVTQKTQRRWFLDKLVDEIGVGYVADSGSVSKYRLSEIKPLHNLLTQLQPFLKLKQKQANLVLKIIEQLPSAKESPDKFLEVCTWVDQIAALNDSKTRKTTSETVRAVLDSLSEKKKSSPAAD
# Tests used:
# Assay in all cases: cell_activity; CHO extrachromosomal LacZ assay
# [1] = biological target: T1, I-CreI heterodimer HBB8.3_C3 / HBB8.4_D4
# [2] = biological target: T2, I-CreI heterodimer HBB8.3_K3 / HBB8.4_D4
# [3] = biological target: T3, I-CreI heterodimer HBB8.3_I3 / HBB8.4_B4
# [4] = biological target: T4, I-CreI heterodimer HBB8.3_D3 / HBB8.4_A4
# [5] = biological target: T5, I-CreI heterodimer HBB8.3_I3 / HBB8.4_D4
# [6] = biological target: T6, I-CreI heterodimer HBB8.3_E3 / HBB8.4_A4
# [7] = biological target: T7, I-CreI heterodimer HBB8.3_B3 / HBB8.4_B4
# [8] = biological target: T8, I-CreI heterodimer HBB8.3_H3 / HBB8.4_D4
# [9] = biological target: T9, I-CreI heterodimer HBB8.3_C3 / HBB8.4_C4
# [10] = biological target: T10, I-CreI heterodimer HBB8.3_K3 / HBB8.4_B4
# [11] = biological target: T11, I-CreI heterodimer HBB8.3_D3 / HBB8.4_D4
Binder,activity [1],activity [2],activity [3],activity [4],activity [5],activity [6],activity [7],activity [8],activity [9],activity [10],activity [11]
HBB8 (dsDNA) DNA 1: CTGACTCCTGTGGAGAAGTCTG DNA 2: CAGACTTCTCCACAGGAGTCAG,0.72 absorbance units,1.93 absorbance units,2.26 absorbance units,1.53 absorbance units,1.57 absorbance units,2.52 absorbance units,2.29 absorbance units,2.1 absorbance units,2.62 absorbance units,2.06 absorbance units,2 absorbance units
HBB6 (dsDNA) DNA 1: CTGACTCCTGAGGAGAAGTCTG DNA 2: CAGACTTCTCCTCAGGAGTCAG,0.37 absorbance units,1.63 absorbance units,1.88 absorbance units,1.23 absorbance units,0.12 absorbance units,2.04 absorbance units,1.21 absorbance units,1.84 absorbance units,1.87 absorbance units,1.57 absorbance units,1.09 absorbance units
